Experimental data published in PMC6698656, “Structural insights into dimethylation of 12S rRNA by TFB1M: indispensable role in translation of mitochondrial genes and mitochondrial function”.

Target: hsTFB1M (Homo sapiens, UniProt Q8WVM0 28-346)
Assay: X-ray crystallography; no SAM (binary complex), 3.0 A; EMSA: 50 mM Tris-HCl pH 8.0, 25 mM NaCl, 100 nM RNA, TFB1M 0-2 mM as printed (legend suggests uM), 37 C 30 min; 6% native PAGE, 0.5x TBE
Conditions: protein: recombinant; tags: His6-MBP N-terminal, removed by TEV; hairpin

hsTFB1M, sequence (Q8WVM0 28-346): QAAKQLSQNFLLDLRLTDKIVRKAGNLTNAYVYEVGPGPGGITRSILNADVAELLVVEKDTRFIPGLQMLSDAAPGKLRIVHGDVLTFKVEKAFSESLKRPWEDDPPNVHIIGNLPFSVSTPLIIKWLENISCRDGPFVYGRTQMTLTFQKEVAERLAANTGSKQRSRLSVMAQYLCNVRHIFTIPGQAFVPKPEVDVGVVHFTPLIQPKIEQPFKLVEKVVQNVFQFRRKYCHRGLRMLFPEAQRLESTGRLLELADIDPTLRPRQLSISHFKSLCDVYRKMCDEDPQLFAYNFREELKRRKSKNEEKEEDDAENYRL

B1: h45 RNA (crystal) (structured_RNA)
RNA: GGUAAGUGUACUGGAAAGUGCACUUGCC
**Q.** Does B1 bind?
**A.** binds
